The results in this text go back to PMC9303552 (Angewandte Chemie (International Ed. in English), 2022).

B1: isolated TPR domain of CHIP (domain or fragment, human)
chain: EKSPSAQELKEQGNRLFVGRKYPEAAACYGRAITRNPLVAVYYTNRALCYLKMQQHEQALADCRRALELDGQSVKAHFFLGQCQLEMESYDEAIANLQRAYSLAKEQRLNFGDDIPSALRIAKKKRWNSIEERR
B2: GST-CHIP (carboxyl terminus of Hsp70 interacting protein, full length) (enzyme, human, UniProt Q9UNE7 1-303, looked up)
chain: MKGKEEKEGGARLGAGGGSPEKSPSAQELKEQGNRLFVGRKYPEAAACYGRAITRNPLVAVYYTNRALCYLKMQQHEQALADCRRALELDGQSVKAHFFLGQCQLEMESYDEAIANLQRAYSLAKEQRLNFGDDIPSALRIAKKKRWNSIEERRIHQESELHSYLSRLIAAERERELEECQRNHEGDEDDSHVRAQQACIEAKHDKYMADMDELFSQVDEKRKKRDIPDYLCGKISFELMREPCITPSGITYDRKDIEEHLQRVGHFDPVTRSPLTQEQLIPNLAMKEVIDAFISENGWVEDY
B3: Tau1-152 (domain or fragment, human, UniProt P10636-8 1-152, looked up)
chain: MAEPRQEFEVMEDHAGTYGLGDRKDQGGYTMHQDQEGDTDAGLKESPLQTPTEDGSEEPGSETSDAKSTPTAEDVTAPLVDEGAPGKQAAAQPHTEIPEGTTAEEAGIGDTPSLEDEAAGHVTQARMVSKSKDGTGSDDKKAKGADGKTKIA

The target of test [1] is T1, Tau 2N4R isoform (full-length Tau) (human, UniProt P10636-8 1-441). Kind of test: ITC. Background: In ITC the heat of successive injections is recorded.
The target in test [2] is T1, Tau 2N4R isoform (full-length Tau). Kind of test: NMR titration.
The target in test [3] is B2. Kind of test: NMR titration.

On to B1, for which the Kd in test [1] stood at 360 µM.

With B2, the Kd in test [2] was found to be 14 µM.

Take B3: the binding result in test [3] is “binds”.

Usually Kd stands for the constant that tells how readily two partners part at equilibrium. The low end stands for tighter binding, the high end for weaker binding.
